Measured values as given in patent US7799901B2, “Modulators of the function of FAS receptors and other proteins” (Yeda Research and Development Co. Ltd., priority 1995, dated 2010).

Target: T1, FAS-R (Homo sapiens, UniProt P25445)
T1 construct: the FAS-IC extends-from amino acid residues 175-319 of the intact FAS-R; expressed in transfected cells; host or cells: SFY526 yeast
T1 sequence (P25445 191-335): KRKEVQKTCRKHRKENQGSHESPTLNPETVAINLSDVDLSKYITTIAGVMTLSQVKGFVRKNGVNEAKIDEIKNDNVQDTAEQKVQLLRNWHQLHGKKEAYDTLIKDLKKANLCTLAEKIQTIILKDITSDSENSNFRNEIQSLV
Assay: Two-hybrid β-galactosidase filter assay (FIG. 5), binding to FAS-R
Settings: two hybrid test
Procedure: The yeast two-hybrid test was further applied to evaluate the specificity of binding of MACH to MORT-1, in particular, to define the region in MORT-1 to which MACH binds, as well as to determine which of the MACH ORFs interacts with MORT-1, the procedures being as set forth herein above in Examples 1 and 2. Briefly, various MORT-1 and MACH constructs were prepared for testing the interaction of the proteins encoded by the Gal4 DNA-binding domain and activation domain constructs within transfected SFY526 yeast cells as assessed by the β-galactosidase expression filter assay. The DNA-binding domain constructs were prepared in pGBT9 vectors and the activation domain constructs were prepared in pGAD-GM vectors. […] In the assay, the development of color was determined, where the greater the color development, the greater the interaction between the constructs encoded by the DNA-binding domain and activation domain; Color development was depicted by symbols, where “+++” and “+” indicate the development of a strong color within 30 and 90 min. of the assay, respectively, and “−−−” indicates the lack of development of color within 24 hrs. of the assay. […]
In FIG. 5, there is shown the results of the interaction of MORT-1 and MACH within transfected yeast cells. […] Their interaction was assessed by a β-galactosidase expression filter assay as described in Boldin et al (1995b). […]

B1: MACHβ1: MACH isoform, cDNA SEQ ID NO: 4, amino acid SEQ ID NO: 5; lacks the CED3/ICE homology region (protein)
chain: MDFSRNLYDIGEQLDSEDLASLKFLSLDYIPQRKQEPIKDALMLFQRLQEKRMLEESNLSFLKELLFRINRLDLLITYLNTRKEEMERELQTPGRAQISAYRVMLYQISEEVSRSELRSFKFLLQEEISKCKLDDDMNLLDIFIEMEKRVILGEGKLDILKRVCAQINKSLLKIINDYEEFSKERSSSLEGSPDEFSNDFGQSLPNEKQTSGILSDHQQSQFCKSTGESAQTSQH
  binding to FAS-R in transfected yeast: unable to bind
